Results from patent US20230406922A1 (SIMCERE ZAIMING PHARMACEUTICAL, published 2023).
Positions count from the first letter of the chain named. Blank lines part the entries; values can stand above or below the binder they belong to.

Legend:
[1] = biological target: T1, monkey CD19, full length, on HEK293T cells (monkey, UniProt P15391 20-556 (human entry)); experiment: FACS on HEK293T-monkey CD19 cells
T1 construct: The entry holds the signal peptide; also called HEK293T-monkey CD19
T1 chain: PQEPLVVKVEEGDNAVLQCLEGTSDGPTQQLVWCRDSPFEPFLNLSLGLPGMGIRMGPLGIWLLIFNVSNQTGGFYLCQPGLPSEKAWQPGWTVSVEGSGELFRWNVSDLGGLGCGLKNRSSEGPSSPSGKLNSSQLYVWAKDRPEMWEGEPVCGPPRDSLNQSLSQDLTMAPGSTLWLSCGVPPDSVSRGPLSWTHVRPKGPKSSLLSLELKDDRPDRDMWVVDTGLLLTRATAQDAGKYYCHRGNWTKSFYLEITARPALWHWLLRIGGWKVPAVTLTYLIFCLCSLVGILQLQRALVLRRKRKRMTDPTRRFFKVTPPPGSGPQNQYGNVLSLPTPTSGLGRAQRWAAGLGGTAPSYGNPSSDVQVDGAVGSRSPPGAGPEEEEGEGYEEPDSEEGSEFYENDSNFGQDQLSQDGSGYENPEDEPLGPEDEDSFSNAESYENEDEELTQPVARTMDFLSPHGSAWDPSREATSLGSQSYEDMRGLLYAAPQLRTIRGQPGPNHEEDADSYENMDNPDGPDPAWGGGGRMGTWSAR
Experimental: (§1) For suspension cells Raji, the medium supernatant was discarded by direct centrifugation, and the cell pellet was washed twice with PBS. After cell counting of the cells obtained in the last step, the cell pellet was resuspended to 2×10⁶ cells/mL with a blocking solution [PBS+2% (w/w) BSA] and added into a 96-well FACS reaction plate at 50 μL/well. […] After the plate was centrifuged and washed 5 times with a PBS buffer, the results were assayed and analyzed by FACS (FACS Canto™, purchased from BD Biosciences). Data analysis was performed by software (CellQuest) to obtain the mean fluorescence intensity (MFI) of the cells. Then, analysis was performed by software (GraphPad Prism8), data were fitted, and EC₅₀ values were calculated.
(§2) HEK293T-monkey CD19 cells were subjected to the FACS assay and data analysis according to the method described in Example 4.2.

[2] = biological target: T2, cynomolgus monkey CD19 on peripheral blood B cells (cynomolgus monkey (Macaca fascicularis), UniProt A0A2K5W8L9 20-557); experiment: FACS on cynomolgus monkey PBMC, gated on CD20-positive B cells
T2 construct: whole, on cells; also called cynomolgus monkey B cells
T2 sequence: T1 chain
Experimental: Monkey peripheral blood mononuclear cells were extracted from fresh cynomolgus monkey peripheral blood (purchased from Shanghai Medicilon Inc.) according to Ficoll-Paque Plus (purchased from GE Healthcare, Cat. No. 171440-02). […] The cells were incubated at room temperature for 1 h. […] The cells were incubated at room temperature for 30 min in the dark, washed 5 times, gently resuspended in PBS, and assayed and analyzed by FACS (FACS Canto™, purchased from BD Biosciences), in which CD20 was used as a marker for B cells.

[3] = biological target: T1, monkey CD19, full length, on HEK293T …; experiment: FACS titration on HEK293T-monkey CD19 cells
Experimental: as §1, §2

EC50 [1]: 20.3 nM | maximum mean fluorescence intensity [1]: 38500 MFI | proportion of positive cells to B cells (%) at 1 nM [2]: 3% | proportion of positive cells to B cells (%) at 10 nM [2]: 6% | proportion of positive cells to B cells (%) at 100 nM [2]: 39%
B1: FMC63.26-mIgG1 (antibody, V domains shown)
VH: EVTLKESGPVLVKPTETLTLTCTVSGFSLPDYGVSWIRQPPGKALEWLAVIWGSETTYYNSALKSRLTISKDTSKSQVVLTMTNMDPVDTATYYCAKHYYYGGSYAMDYWGQGTTVTVSS
VL: DIQMTQSPSSLSASVGDRVTITCRASQDISKYLNWYQQKPGGAVKLLIYHTSRLHSGVPSRFSGSGSGTDYTLTISSLQPEDFATYYCQQGNTLPYTFGGGTKVEIKR
notes: Humanized FMC63; also called FMC63-L2H6

EC50 [1]: 1.52 nM | maximum mean fluorescence intensity [1]: 34700 MFI | EC50 (read off the curve) [3]: ~0.2 nM | proportion of positive cells to B cells (%) at 1 nM [2]: 4% | proportion of positive cells to B cells (%) at 10 nM [2]: 10% | proportion of positive cells to B cells (%) at 100 nM [2]: 60%
B2: FMC63.25-mIgG1 (antibody, V domains shown)
VH: B1 VH with P30S
VL: B1 VL
notes: Humanized FMC63; also called FMC63-L2H5
